Reference: patent US20220025012A1 (HANMI PHARM, published 2022)
Square brackets hold non-standard residues; d marks the D form. Ends that are not written are not given here. αMeE = C[C@](N)(CCC(=O)O)C(=O)O

What was measured:
human glucagon receptor = human glucagon receptor (human, UniProt P47871 26-477); assay: cell-based or functional assay
human GLP-1 receptor = human GLP-1 receptor (human, UniProt P43220 24-463); assay: cell-based or functional assay

human glucagon receptor, sequence (P47871 26-477): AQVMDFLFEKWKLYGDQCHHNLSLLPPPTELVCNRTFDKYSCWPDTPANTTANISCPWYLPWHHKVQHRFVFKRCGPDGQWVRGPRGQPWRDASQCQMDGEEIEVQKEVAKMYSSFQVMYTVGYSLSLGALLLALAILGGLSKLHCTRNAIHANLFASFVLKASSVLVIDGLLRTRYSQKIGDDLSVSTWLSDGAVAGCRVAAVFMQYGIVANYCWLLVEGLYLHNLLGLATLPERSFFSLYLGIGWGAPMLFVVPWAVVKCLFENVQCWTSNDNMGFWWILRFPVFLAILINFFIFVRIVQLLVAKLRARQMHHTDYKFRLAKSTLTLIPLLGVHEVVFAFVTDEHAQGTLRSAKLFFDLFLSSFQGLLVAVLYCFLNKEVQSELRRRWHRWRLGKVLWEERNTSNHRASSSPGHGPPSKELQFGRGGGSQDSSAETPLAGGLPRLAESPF

Row | Binder | EC50 (nM), cAMP concentration in CHO cells expressing hGCGR (human glucagon receptor) | EC50 (nM), cAMP concentration in CHO cells expressing hGLP-IR (human GLP-1 receptor)
1 | H[αMeE]QGTFTSDYSKYLDEKCAKEFVQWLMNT (not fully specified) [glucagon derivative of SEQ ID NO: 14] | 0.38 nM | 0.17 nM
2 | H[αMeE]QGTFTSDYSKYLCEKRAKEFVQWLMNT (not fully specified) [glucagon derivative of SEQ ID NO: 12] | 1.38 nM | 0.96 nM
3 | H[αMeE]QGTFTSDYSKYLDECRAKEFVQWLMNT (not fully specified) [glucagon derivative of SEQ ID NO: 13] | 0.23 nM | 0.27 nM
